Common to all, as to conditions: protein: recombinant; tags: MBP; label: 32P 5' end
The target of series [1] is T1, MBP-KLF4 K409Q full length (human, UniProt O43474-1 1-479, K409Q). In words: EMSA; stronger than FGF3-201; EMSA: 10 mM Tris-HCl pH 7.5, 53 mM NaCl, 1 mM DTT, 0.01% NP40, 5% glycerol, protein inhibitors, RT 30 min; footprinting: 110 ng to 3 ug protein, RT 30 min, 0.3.
A further series deals with MBP-KLF4 K409Q DBD (human, UniProt O43474-1 375-479, K409Q). Described as above.
Series [2] concerns the target T2, MBP-KLF4 DBD (human, UniProt O43474-1 375-479). In words: EMSA; EMSA: 10 mM Tris-HCl pH 7.5, 53 mM NaCl, 1 mM DTT, 0.01% NP40, 5% glycerol, protein inhibitors, RT 30 min; footprinting: 110 ng to 3 ug protein, RT 30 min, 0.3.
The target in series [3] is T1, MBP-KLF4 K409Q full length. The description is as above.
Series [4] concerns the target T3, MBP-KLF4 full length (human, UniProt O43474-1 1-479). Described as above.
For series [5], the target named is T2, MBP-KLF4 DBD. In words: EMSA; same strong binding as TRH-122; EMSA: 10 mM Tris-HCl pH 7.5, 53 mM NaCl, 1 mM DTT, 0.01% NP40, 5% glycerol, protein inhibitors, RT 30 min; footprinting: 110 ng to 3 ug protein, RT 30 min, 0.3.
Series [6] deals with T3, MBP-KLF4 full length. Described as above.

T1 sequence (O43474 other isoform, or with tags, fused parts or gaps K409Q | K409Q K409Q): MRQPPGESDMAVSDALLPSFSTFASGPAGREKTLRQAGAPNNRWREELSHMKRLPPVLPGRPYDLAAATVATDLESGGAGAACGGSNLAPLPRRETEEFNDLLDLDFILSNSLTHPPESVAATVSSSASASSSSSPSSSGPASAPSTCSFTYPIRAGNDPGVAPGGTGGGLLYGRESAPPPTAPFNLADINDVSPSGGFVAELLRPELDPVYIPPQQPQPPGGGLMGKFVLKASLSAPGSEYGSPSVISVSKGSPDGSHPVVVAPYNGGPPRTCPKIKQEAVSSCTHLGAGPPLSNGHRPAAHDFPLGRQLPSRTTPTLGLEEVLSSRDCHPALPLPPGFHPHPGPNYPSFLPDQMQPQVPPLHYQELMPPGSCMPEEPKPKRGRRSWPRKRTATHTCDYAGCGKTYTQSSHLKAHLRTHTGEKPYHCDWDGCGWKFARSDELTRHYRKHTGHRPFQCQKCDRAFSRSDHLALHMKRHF
T3 sequence (O43474 other isoform, or with tags, fused parts or gaps): as the sequence (O43474 other isoform, or with tags, fused parts or gaps K409Q | K409Q K409Q) above, with Q409K counted along it
T2 sequence (O43474 409-513): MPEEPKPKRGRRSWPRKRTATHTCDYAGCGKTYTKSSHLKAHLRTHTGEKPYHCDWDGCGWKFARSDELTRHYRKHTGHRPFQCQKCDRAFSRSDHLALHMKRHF
MBP-KLF4 K409Q DBD, sequence (O43474 409-513 K443Q): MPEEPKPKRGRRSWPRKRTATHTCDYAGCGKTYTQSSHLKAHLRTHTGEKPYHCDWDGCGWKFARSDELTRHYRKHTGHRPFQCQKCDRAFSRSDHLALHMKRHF

B1: FGF3-201M (dsDNA)
DNA 1: CCTTTAATGGGTGTGTGTCAGC
DNA 2: GCTGACACACACCCATTAAAGG
Consider B1, for which the binding result (in series [1]; with MBP-KLF4 K409Q DBD) was “binds” in each case.

B2: TRH-122 (dsDNA)
DNA 1: GAGCAGGCGGGCGGGGTCCCGC
DNA 2: GCGGGACCCCGCCCGCCTGCTC
On to B2, for which the binding result (with MBP-KLF4 DBD [2]; in series [3]; with MBP-KLF4 full length [4]) was “binds” each time.

B3: TRH-122M (dsDNA)
DNA 1: GAGCAGGCGGGCGGGGCCCCGC
DNA 2: GCGGGGCCCCGCCCGCCTGCTC
Regarding B3, the binding result with MBP-KLF4 DBD [5] and with MBP-KLF4 full length [6] was “binds” throughout.

The values are drawn from PMC9391581, “Mutated KLF4(K409Q) in meningioma binds STRs and activates FGF3 gene expression”.
